Assay results from PMC3691878.

What was measured:
Test in all cases: SEC
[1] = biological target: rainbow trout (Oncorhynchus mykiss) BALM (rainbow trout (Oncorhynchus mykiss))
[2] = biological target: rainbow trout (Oncorhynchus mykiss) TRAIL-like (rainbow trout (Oncorhynchus mykiss))
[3] = biological target: rainbow trout (Oncorhynchus mykiss) RANKL (rainbow trout (Oncorhynchus mykiss))

“rainbow trout (Oncorhynchus mykiss) BALM (ligand)” was tested. Which stoichiometry N [1] did it give?
The stoichiometry N was 3.

Which stoichiometry N [2] does the source give for “rainbow trout (Oncorhynchus mykiss) TRAIL-like (ligand)” here?
The stoichiometry N was 3.

Which stoichiometry N [3] does the source give for “rainbow trout (Oncorhynchus mykiss) RANKL (ligand)” here?
Its stoichiometry N is 3.
